These results are taken from paper PMC5440810.

The target in test [1] is P18-I10/H2-D^d, BirA-tagged and biotinylated (mouse | not stated). Nature of the test: SPR. A general note: SPR reads the build-up and loss of mass on a sensor chip optically.
In test [2] the target is P18-I10/H2-D^d (peptide-loaded MHC class I with β2m) (mouse | not stated). Kind of test: AUC.

“B4.2.3 TCR, soluble disulfide-linked αβ heterodimer (extracellular portions)” had a Kd in test [1] of 540 nM. Moreover, in test [2], the Kd came to 230 nM and the stoichiometry N is 1.

Broadly, the Kd is the equilibrium constant for the complex coming apart. For orientation: stoichiometry N means a count of units in the complex or per binding partner.
